Results on 5 substances are retold here after patent publication US20150299268A1.

One assay addresses gp120-JR4-ScFV. The assay can be described thus: ELISA. On the technique in general: ELISA stands for enzyme-linked immunosorbent assay.
The target in another assay is gp120-VRC01-ScFV. The assay is described as follows: ELISA.
The next assay addresses gp120-JR48.1-ScFV. The assay is described as follows: ELISA.
Assay [1] deals with BaL-gp120 (HIV-1 BaL). The assay can be described thus: ELISA.
The target of another assay is FLSC R/T (HIV-1) (UniProt P01730). The assay is described as follows: ELISA.
Another assay deals with gp120-b12-ScFV. The assay can be described thus: ELISA.
The next assay concerns the target core-D7 (HIV-1). The assay is described as follows: capture ELISA.
Assay [2] deals with BaL-gp120-D57A (HIV-1 BaL). The assay is described as follows: capture ELISA.
Assay [3] addresses BaL-gp120-E47A (HIV-1 BaL). The assay can be described thus: capture ELISA.
The target of assay [4] is BaL-gp120-E31A (HIV-1 BaL). The assay can be described thus: capture ELISA.
Assay [5] deals with BaL-gp120-E32A (HIV-1 BaL). The assay is described as follows: capture ELISA.
The target in assay [6] is BaL-gp120-I420R (HIV-1 BaL). The assay is described as follows: capture ELISA.
In assay [7] the target is BaL-gp120-D57AD78A (HIV-1 BaL). The assay is described as follows: capture ELISA.
In assay [8] the target is BaL-gp120-D62A (HIV-1 BaL). The assay is described as follows: capture ELISA.
The target of the next assay is core-V1V2-D7 (HIV-1). The assay is described as follows: capture ELISA.
In assay [9] the target is BaL-gp120-H105A (HIV-1 BaL). The assay can be described thus: capture ELISA.
For assay [10], the target named is BaL-gp120-V496A (HIV-1 BaL). The assay can be described thus: capture ELISA.
Assay [11] deals with BaL-gp120-V75A (HIV-1 BaL). The assay can be described thus: capture ELISA.
The target of assay [12] is BaL-gp120-F53A (HIV-1 BaL). The assay can be described thus: capture ELISA.
For assay [13], the target named is BaL-gp120-G495A (HIV-1 BaL). The assay is described as follows: capture ELISA.
Assay [14] deals with BaL-gp120-V44A (HIV-1 BaL). The assay can be described thus: capture ELISA.
In assay [15] the target is BaL-gp120-I491A (HIV-1 BaL). The assay can be described thus: capture ELISA.
In assay [16] the target is BaL-gp120-S334A (HIV-1 BaL). The assay can be described thus: capture ELISA.
The target in assay [17] is BaL-gp120-R476A (HIV-1 BaL). The assay is described as follows: capture ELISA.
The target of assay [18] is BaL-gp120-P76A (HIV-1 BaL). The assay is described as follows: capture ELISA.
Assay [19] deals with BaL-gp120-V68A (HIV-1 BaL). The assay can be described thus: capture ELISA.
The target of assay [20] is BaL-gp120-dV3 (HIV-1 BaL). The assay is described as follows: capture ELISA.
In assay [21] the target is BaL-gp120-R58AK59A (HIV-1 BaL). The assay is described as follows: capture ELISA.
The target of assay [22] is BaL-gp120-dV2 (HIV-1 BaL). The assay is described as follows: capture ELISA.
The target of assay [23] is BaL-gp120-T162A (HIV-1 BaL). The assay is described as follows: capture ELISA.
The target in assay [24] is BaL-gp120-W35A (HIV-1 BaL). The assay is described as follows: capture ELISA.
Assay [25] has as its target BaL-gp120-Y61A (HIV-1 BaL). The assay is described as follows: capture ELISA.
For assay [26], the target named is BaL-gp120-mV3 (HIV-1 BaL). The assay is described as follows: capture ELISA.
For assay [27], the target named is BaL-gp120-L494A (HIV-1 BaL). The assay is described as follows: capture ELISA.
For assay [28], the target named is BaL-gp120-Y39A (HIV-1 BaL). The assay is described as follows: capture ELISA.
Assay [29] has as its target BaL-gp120-D368R (HIV-1 BaL). The assay is described as follows: capture ELISA.
Assay [30] has as its target BaL-gp120-S200A (HIV-1 BaL). The assay can be described thus: capture ELISA.
Assay [31] addresses BaL-gp120-D57AD62A (HIV-1 BaL). The assay can be described thus: capture ELISA.
The target of assay [32] is BaL-gp120-Y40A (HIV-1 BaL). The assay is described as follows: capture ELISA.
Assay [33] has as its target BaL-gp120-R476AR480A (HIV-1 BaL). The assay can be described thus: capture ELISA.
The target in assay [34] is BaL-gp120-P493A (HIV-1 BaL). The assay is described as follows: capture ELISA.
For the next assay, the target named is core-V3-D7 (HIV-1). The assay can be described thus: capture ELISA.
For assay [35], the target named is BaL-gp120-I423A (HIV-1 BaL). The assay can be described thus: capture ELISA.
In assay [36] the target is BaL-gp120-K33A (HIV-1 BaL). The assay can be described thus: capture ELISA.
Assay [37] has as its target BaL-gp120-T499A (HIV-1 BaL). The assay can be described thus: capture ELISA.
Assay [38] concerns the target BaL-gp120 (HIV-1 BaL). The assay is described as follows: capture ELISA.
Assay [39] addresses BaL-gp120-K500A (HIV-1 BaL). The assay can be described thus: capture ELISA.
Assay [40] addresses BaL-gp120-D78A (HIV-1 BaL). The assay is described as follows: capture ELISA.
In assay [41] the target is BaL-gp120-P498A (HIV-1 BaL). The assay is described as follows: capture ELISA.
Assay [42] deals with BaL-gp120-K487AK490A (HIV-1 BaL). The assay can be described thus: capture ELISA.
The target in assay [43] is BaL-gp120-E492A (HIV-1 BaL). The assay is described as follows: capture ELISA.
Assay [44] addresses BaL-gp120-dV1 (HIV-1 BaL). The assay is described as follows: capture ELISA.
Another assay has as its target FLSC (HIV-1) (UniProt P01730). The assay can be described thus: capture ELISA.
For assay [45], the target named is BaL-gp120-W45A (HIV-1 BaL). The assay is described as follows: capture ELISA.
For assay [46], the target named is BaL-gp120-E47AE91A (HIV-1 BaL). The assay can be described thus: capture ELISA.
Assay [47] deals with BaL-gp120-T303A (HIV-1 BaL). The assay can be described thus: capture ELISA.
The target of assay [48] is BaL-gp120-W69A (HIV-1 BaL). The assay is described as follows: capture ELISA.
The target of assay [49] is BaL-gp120-K46A (HIV-1 BaL). The assay can be described thus: capture ELISA.
For assay [50], the target named is BaL-gp120-T455A (HIV-1 BaL). The assay can be described thus: capture ELISA.
Assay [51] addresses BaL-gp120-S158A (HIV-1 BaL). The assay can be described thus: capture ELISA.
Assay [52] has as its target BaL-gp120-E106AD107A (HIV-1 BaL). The assay can be described thus: capture ELISA.

For A32 (antibody), the Fold of Ab needed for ELISA binding OD equal to half max on gp120 with gp120-JR4-ScFV is over 100 fold; in the assay with gp120-VRC01-ScFV, 0.2 fold; with gp120-JR48.1-ScFV, 0.1 fold; with BaL-gp120 (HIV-1 BaL) [1], 1 fold; with FLSC R/T (HIV-1), 0.04 fold; with gp120-b12-ScFV, 0.06 fold.
As to 2G12 (antibody), the Fold of Ab needed for ELISA binding OD equal to half max on gp120 in the assay with gp120-JR4-ScFV came to 0.61 fold; with gp120-VRC01-ScFV, 0.66 fold; with gp120-JR48.1-ScFV, 0.58 fold; with BaL-gp120 (HIV-1 BaL) [1] it was 1 fold; with FLSC R/T (HIV-1), 0.91 fold; with gp120-b12-ScFV, 0.56 fold. For the same substance, the % Binding in the assay with core-D7 (HIV-1) amounted to 100%; in [2] it was 91%; in [3], 96%; in [4], 80%; in assay [5], 93%; in assay [6] it was 93%. For the same substance, the % Binding in assay [7] was 95%; in assay [8] it was 86%; with core-V1V2-D7 (HIV-1), 100%; in assay [9], 89%; in assay [10] it was 96%; in assay [11] it was 89%. Besides, the % Binding in [12] turned out to be 99%; in [13] it was 93%; in [14] it was 93%; in assay [15], 92%; in assay [16], 16%; in assay [17], 98%. For the same substance, the % Binding in assay [18] was 90%; in [19], 82%; in assay [20], 100%; in assay [21] it was 88%; in [22] it was 82%; in assay [23], 87%. The % Binding in assay [24] is 99%; in assay [25], 81%; in assay [26], 100%; in assay [27], 79%; in [28], 89%; in assay [29], 82%. For the same substance, the % Binding in assay [30] turned out to be 92%; in [31], 105%; in assay [32], 93%; in assay [33] it was 83%; in assay [34] it was 93%; with core-V3-D7 (HIV-1) it was 86%. In addition, the % Binding is 94% in assay [35]; 83% in assay [36]; 100% in assay [37]; 100% with BaL-gp120 (HIV-1 BaL) [38]; 92% in [39]; 87% in assay [40]. Also, the % Binding came to 93% in [41]; 83% in [42]; 93% in assay [43]; 93% in [44]; 104% in the assay with FLSC (HIV-1); 92% in assay [45]. For the same substance, the % Binding is 86% in assay [46]; 88% in assay [47]; 87% in assay [48]; 92% in assay [49]; 87% in [50]; 80% in [51]. In assay [52], this substance registered a % Binding of 79%.
PG04 (antibody): the Fold of Ab needed for ELISA binding OD equal to half max on gp120 was 0.26 fold in the assay with gp120-JR4-ScFV, 0.36 fold in the assay with gp120-JR48.1-ScFV, 1 fold with BaL-gp120 (HIV-1 BaL) [1] and over 100 fold in the assay with gp120-b12-ScFV.
In the case of PGT128 (antibody), the Fold of Ab needed for ELISA binding OD equal to half max on gp120 in the assay with gp120-JR4-ScFV was found to be 0.13 fold; in the assay with gp120-VRC01-ScFV, 0.23 fold; with gp120-JR48.1-ScFV, 0.14 fold; in the assay with BaL-gp120 (HIV-1 BaL) [1] it was 1 fold; with FLSC R/T (HIV-1), 5.07 fold; in the assay with gp120-b12-ScFV it was 0.09 fold.
Turning to PG9 (antibody), the Fold of Ab needed for ELISA binding OD equal to half max on gp120 is 0.02 fold with gp120-JR4-ScFV; 0.09 fold with gp120-VRC01-ScFV; 0.07 fold with gp120-JR48.1-ScFV; 1 fold in the assay with BaL-gp120 (HIV-1 BaL) [1]; 8.02 fold in the assay with FLSC R/T (HIV-1); 0.06 fold with gp120-b12-ScFV.
